Data taken from publication PMC9758055.

Experiments:
[1] = biological target: SNAPC1;SNAPC2;SNAPC3;SNAPC4 full length;SNAPC5;TBP;TFIIB (Homo sapiens;Homo sapiens;Homo …, UniProt Q16533;Q13487;Q92966;Q5SXM2;O75971;P20226;Q00403 …, ||||||); test: EMSA; SNAPc-FL with TBP and TFIIB; EMSA: 250 mM NaCl, 50 mM HEPES pH 7.9, 20% glycerol, 1 mM TCEP, room temperature 15 min; 20 pM SNAPc, 5 pM DNA, 25 pM TBP/TFIIB (units as printed). Cryo-EM: ass; conditions: protein: recombinant;recombinant;recombinant;recombinant;recombinant;recombinant;recombinant; tags: ;;;N-terminal StrepTwin, C-terminal His;;;; copies: 1;1;1;1;1;1;1; blunt
[2] = biological target: SNAPC1;SNAPC2;SNAPC3;SNAPC4 full length;SNAPC5 (Homo sapiens;Homo sapiens;Homo …, UniProt Q16533;Q13487;Q92966;Q5SXM2;O75971 1-368;1-334;1-411;1-1469;1-98, ||||); test: EMSA; SNAPc-FL alone; EMSA: 250 mM NaCl, 50 mM HEPES pH 7.9, 20% glycerol, 1 mM TCEP, room temperature 15 min; 20 pM SNAPc, 5 pM DNA, 25 pM TBP/TFIIB (units as printed). Cryo-EM: ass; conditions: protein: recombinant;recombinant;recombinant;recombinant;recombinant; tags: ;;;N-terminal StrepTwin, C-terminal His;; copies: 1;1;1;1;1; blunt
[3] = biological target: SNAPC1;SNAPC3;SNAPC4 1-516;SNAPC5;TBP;TFIIB (Homo sapiens;Homo sapiens;Homo …, UniProt Q16533;Q92966;Q5SXM2;O75971;P20226;Q00403 1-368;1-411;1-516;1-98;1-339;1-316, |||||); test: EMSA; SNAPc-core with TBP and TFIIB; EMSA: 250 mM NaCl, 50 mM HEPES pH 7.9, 20% glycerol, 1 mM TCEP, room temperature 15 min; 20 pM SNAPc, 5 pM DNA, 25 pM TBP/TFIIB (units as printed). Cryo-EM: ass; conditions: protein: recombinant;recombinant;recombinant;recombinant;recombinant;recombinant; tags: ;;;;;; copies: 1;1;1;1;1;1; blunt
[4] = biological target: SNAPC1;SNAPC3;SNAPC4 1-516;SNAPC5 (Homo sapiens;Homo sapiens;Homo …, UniProt Q16533;Q92966;Q5SXM2;O75971 1-368;1-411;1-516;1-98, |||); test: EMSA; SNAPc-core alone; EMSA: 250 mM NaCl, 50 mM HEPES pH 7.9, 20% glycerol, 1 mM TCEP, room temperature 15 min; 20 pM SNAPc, 5 pM DNA, 25 pM TBP/TFIIB (units as printed). Cryo-EM: ass; conditions: protein: recombinant;recombinant;recombinant;recombinant; tags: ;;;; copies: 1;1;1;1; blunt
[5] = biological target: SNAPC1;SNAPC3;SNAPC4 1-516;SNAPC5;TBP;TFIIB;TFIIA (Homo sapiens;Homo sapiens;Homo …, UniProt Q16533;Q92966;Q5SXM2;O75971;P20226;Q00403;P52655;P52657 …, ||||||); test: cryo-EM; local map of SNAPc-containing upstream complex; GraFix; EMSA: 250 mM NaCl, 50 mM HEPES pH 7.9, 20% glycerol, 1 mM TCEP, room temperature 15 min; 20 pM SNAPc, 5 pM DNA, 25 pM TBP/TFIIB (units as printed). Cryo-EM: ass; conditions: protein: recombinant;recombinant;recombinant;recombinant;recombinant;recombinant;recombinant; tags: ;;;;;;; copies: 1;1;1;1;1;1;1;1; blunt
[6] = biological target: SNAPC1;SNAPC3;SNAPC4 1-516;SNAPC5;TBP;TFIIB;TFIIA;TFIIF;RNA polymerase II (Homo sapiens;Homo sapiens;Homo …, UniProt Q16533;Q92966;Q5SXM2;O75971;P20226;Q00403;P52655;P52657;P35269;P13984;A0A8D1DPV6 …, ||||||||); test: cryo-EM; closed complex; GraFix; TFIIE added in assembly; Zn2+ in SNAPC3; EMSA: 250 mM NaCl, 50 mM HEPES pH 7.9, 20% glycerol, 1 mM TCEP, room temperature 15 min; 20 pM SNAPc, 5 pM DNA, 25 pM TBP/TFIIB (units as printed). Cryo-EM: ass; conditions: tags: ;;;;;;;;; copies: 1;1;1;1;1;1;1;1;1;1;1;1;1;1;1;1;1;1;1;1;1;1; blunt

Measured: binding result

B1: U1 promoter EMSA fragment (76 bp) (dsDNA)
DNA 1: GAAACGTTGTGCCTCTGCCCCGACACAGCCTCATACGCCTCACTCTTTACACACACGGTCACTTGCCCCGCGCACT
DNA 2: AGTGCGCGGGGCAAGTGACCGTGTGTGTAAAGAGTGAGGCGTATGAGGCTGTGTCGGGGCAGAGGCACAACGTTTC
binds: [1] | [2] | [3] | [4]

B2: U5 promoter EMSA fragment (75 bp) (dsDNA)
DNA 1: ACCAGTTACTTCTGTAACTCAATTTTCGGGTAACTGCAATTCCTAGTACACTGATGGTGTCTACTAATCCCAAGG
DNA 2: CCTTGGGATTAGTAGACACCATCAGTGTACTAGGAATTGCAGTTACCCGAAAATTGAGTTACAGAAGTAACTGGT
binds: [1] | [2] | [3] | [4]

B3: engineered U5 promoter cryo-EM scaffold (96 bp) (dsDNA)
DNA 1: AGTAGACACCATCAGTGTACTAGGACCCGAAAATTGAGTTACAGAAGTAACTGGTATACTCTGGTTTCTCTTCAGATCGCATAAAACCTGGCAGGG
DNA 2: CCCTGCCAGGTTTTATGCGATCTGAAGAGAAACCAGAGTATACCAGTTACTTCTGTAACTCAATTTTCGGGTCCTAGTACACTGATGGTGTCTACT
binds: [5] | [6]
